Reference: US20150344570A1 (published 2015)

B1: GpH7-A5/GpH7-B3 variant S324_03V/GpL16-k0 (antibody, human IgG1, kappa)
heavy 1: not shown
heavy 2: not shown
light: DIVMTQSPLSLPVTPGEPASISCQASESLVHSNRNTYLHWYLQKPGQSPQLLIYKVSNRFSGVPDRFSGSGSGTDFTLKISRVEAEDVGVYYCSQNTHVPPTFGQGTKVEIERTVAAPSVFIFPPSDEQLKSGTASVVCLLNNFYPREAKVQWKVDNALQSGNSQESVTEQDSKDSTYSLSSTLTLSKADYEKHKVYACEVTHQGLSSPVTKSFNRGEC
notes: heterodimerized IgG1, mutation in one H chain; also called He Ab
B2: GpH7-A5/GpH7-B3 variant S298_07I/GpL16-k0 (antibody, human IgG1, kappa)
heavy 1: not shown
heavy 2: not shown
light: B1 light
notes: as for B1
B3: GpH7-A5/GpH7-B3 variant S337_01G/GpL16-k0 (antibody, human IgG1, kappa)
heavy 1: not shown
heavy 2: not shown
light: B1 light
notes: as for B1
B4: GpH7-A5/GpH7-B3 variant S239_05P/GpL16-k0 (antibody, human IgG1, kappa)
heavy 1: not shown
heavy 2: not shown
light: B1 light
notes: Heterodimerized antibody, alteration in one H chain only; also called He Ab S239P
B5: GpH7-A5/GpH7-B3 variant P238_16H/GpL16-k0 (antibody, human IgG1, kappa)
heavy 1: not shown
heavy 2: not shown
light: B1 light
notes: Heterodimerized antibody, alteration in one H chain only; also called He Ab P238H
B6: GpH7-A5/GpH7-B3 variant P271_09D/GpL16-k0 (antibody, human IgG1, kappa)
heavy 1: not shown
heavy 2: not shown
light: B1 light
notes: Heterodimerized antibody, alteration in one H chain only; also called He Ab P271D
B7: GpH7-A5/GpH7-B3 variant S337_03V/GpL16-k0 (antibody, human IgG1, kappa)
heavy 1: not shown
heavy 2: not shown
light: B1 light
notes: as for B1
B8: GpH7-A5/GpH7-B3 variant S239_03V/GpL16-k0 (antibody, human IgG1, kappa)
heavy 1: not shown
heavy 2: not shown
light: B1 light
notes: Heterodimerized antibody, alteration in one H chain only; also called He Ab S239V
B9: GpH7-A5/GpH7-B3 variant H268_20W/GpL16-k0 (antibody, human IgG1, kappa)
heavy 1: not shown
heavy 2: not shown
light: B1 light
notes: Heterodimerized antibody, alteration in one H chain only; also called He Ab H268W
B10: GpH7-A5/GpH7-B3 variant P238_20W/GpL16-k0 (antibody, human IgG1, kappa)
heavy 1: not shown
heavy 2: not shown
light: B1 light
notes: Heterodimerized antibody, alteration in one H chain only; also called He Ab P238W
B11: GpH7-A5/GpH7-B3 variant S298_10E/GpL16-k0 (antibody, human IgG1, kappa)
heavy 1: not shown
heavy 2: not shown
light: B1 light
notes: as for B1
B12: GpH7-A5/GpH7-B3 variant S267_14T/GpL16-k0 (antibody, human IgG1, kappa)
heavy 1: not shown
heavy 2: not shown
light: B1 light
notes: Heterodimerized antibody, alteration in one H chain only; also called He Ab S267T
B13: GpH7-A5/GpH7-B3 variant S298_15Y/GpL16-k0 (antibody, human IgG1, kappa)
heavy 1: not shown
heavy 2: not shown
light: B1 light
notes: as for B1
B14: GpH7-A5/GpH7-B3 variant S298_18N/GpL16-k0 (antibody, human IgG1, kappa)
heavy 1: not shown
heavy 2: not shown
light: B1 light
notes: as for B1
B15: GpH7-A5/GpH7-B3 variant S324_14T/GpL16-k0 (antibody, human IgG1, kappa)
heavy 1: not shown
heavy 2: not shown
light: B1 light
notes: as for B1
B16: GpH7-A5/GpH7-B3 variant K326_03V/GpL16-k0 (antibody, human IgG1, kappa)
heavy 1: not shown
heavy 2: not shown
light: B1 light
notes: Heterodimerized antibody, alteration in one H chain only; also called He Ab K326V
B17: GpH7-A5/GpH7-B3 variant S239_18N/GpL16-k0 (antibody, human IgG1, kappa)
heavy 1: not shown
heavy 2: not shown
light: B1 light
notes: Heterodimerized antibody, alteration in one H chain only; also called He Ab S239N
B18: GpH7-A5/GpH7-B3 variant S267_07I/GpL16-k0 (antibody, human IgG1, kappa)
heavy 1: not shown
heavy 2: not shown
light: B1 light
notes: Heterodimerized antibody, alteration in one H chain only; also called He Ab S267I
B19: GpH7-A5/GpH7-B3 variant S298_08L/GpL16-k0 (antibody, human IgG1, kappa)
heavy 1: not shown
heavy 2: not shown
light: B1 light
notes: as for B1
B20: GpH7-A5/GpH7-B3 variant S298_03V/GpL16-k0 (antibody, human IgG1, kappa)
heavy 1: not shown
heavy 2: not shown
light: B1 light
notes: as for B1
B21: GpH7-A5/GpH7-B3 variant P238_15Y/GpL16-k0 (antibody, human IgG1, kappa)
heavy 1: not shown
heavy 2: not shown
light: B1 light
notes: Heterodimerized antibody, alteration in one H chain only; also called He Ab P238Y
B22: GpH7-A5/GpH7-B3 variant S337_02A/GpL16-k0 (antibody, human IgG1, kappa)
heavy 1: not shown
heavy 2: not shown
light: B1 light
notes: as for B1
B23: GpH7-A5/GpH7-B3 variant S324_02A/GpL16-k0 (antibody, human IgG1, kappa)
heavy 1: not shown
heavy 2: not shown
light: B1 light
notes: as for B1
B24: GpH7-A5/GpH7-B3 variant S267_03V/GpL16-k0 (antibody, human IgG1, kappa)
heavy 1: not shown
heavy 2: not shown
light: B1 light
notes: Heterodimerized antibody, alteration in one H chain only; also called He Ab S267V
B25: GpH7-A5/GpH7-B3 variant P238_19Q/GpL16-k0 (antibody, human IgG1, kappa)
heavy 1: not shown
heavy 2: not shown
light: B1 light
notes: Heterodimerized antibody, alteration in one H chain only; also called He Ab P238Q

Legend:
FcγRIa = target: T1, FcγRIa (human, UniProt P12314 16-292); experiment: SPR (Biacore), captured antibody, FcγRIa analyte; relative to HeCon Ab GpH7-A5/GpH7-B3/GpL16-k0 = 100
T1 construct: extracellular domain; soluble extracellular domain with C-terminal His tag, expressed in FreeStyle293 cells; also called FcgRI; FcgRIa
T1 sequence (P12314 16-292): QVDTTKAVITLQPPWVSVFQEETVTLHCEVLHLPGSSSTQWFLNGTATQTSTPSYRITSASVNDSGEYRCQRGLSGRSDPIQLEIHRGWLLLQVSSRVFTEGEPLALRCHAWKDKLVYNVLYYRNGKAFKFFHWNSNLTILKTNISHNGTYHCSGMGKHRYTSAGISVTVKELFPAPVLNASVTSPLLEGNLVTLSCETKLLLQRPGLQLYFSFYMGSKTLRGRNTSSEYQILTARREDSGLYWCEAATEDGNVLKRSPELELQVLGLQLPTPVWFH

FcγRIIa H = target: T2, FcγRIIa H (human, UniProt P12318 34-217); experiment: SPR (Biacore), antibody captured, FcγR analyte; binding relative to GpH7-A5/GpH7-B3/GpL16-k0 = 100
T2 construct: extracellular domain; also called FcgRIIa H; FcγRIIa type H
T2 sequence (looked up): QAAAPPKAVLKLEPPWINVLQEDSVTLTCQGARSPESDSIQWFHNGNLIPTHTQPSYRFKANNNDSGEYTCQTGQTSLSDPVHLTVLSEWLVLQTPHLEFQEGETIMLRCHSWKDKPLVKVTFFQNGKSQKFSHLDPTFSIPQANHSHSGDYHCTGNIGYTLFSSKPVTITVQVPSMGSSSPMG

FcγRIIb = target: T3, FcγRIIb (human, UniProt P31994 43-217); experiment: as above
T3 construct: extracellular domain; also called FcgRIIb; 2b
T3 sequence (looked up): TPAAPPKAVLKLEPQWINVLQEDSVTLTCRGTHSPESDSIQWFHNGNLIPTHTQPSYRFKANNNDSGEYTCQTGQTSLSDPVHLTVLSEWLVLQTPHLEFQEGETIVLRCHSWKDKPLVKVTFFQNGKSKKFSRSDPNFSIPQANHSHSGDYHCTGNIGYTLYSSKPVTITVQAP

| Binder | He/Con_1a (FcγRIa) | He/Con_2aH (FcγRIIa H) | He/Con_2b (FcγRIIb) |
| --- | --- | --- | --- |
| B1 | 104 % of control |  |  |
| B2 | 107 % of control |  |  |
| B3 | 107 % of control |  |  |
| B4 |  | 33.3 % of control | 102 % of control |
| B5 |  | 45.9 % of control | 115 % of control |
| B6 |  | 70.1 % of control | 120 % of control |
| B7 | 107 % of control |  |  |
| B8 |  | 91 % of control | 108 % of control |
| B9 |  | 95.8 % of control | 111 % of control |
| B10 |  | 59.5 % of control | 123 % of control |
| B11 | 108 % of control |  |  |
| B12 |  | 63.3 % of control | 104 % of control |
| B13 | 107 % of control |  |  |
| B14 | 108 % of control |  |  |
| B15 | 121 % of control |  |  |
| B16 |  | 97 % of control | 175 % of control |
| B17 |  | 94.2 % of control | 119 % of control |
| B18 |  | 34.7 % of control | 192 % of control |
| B19 | 107 % of control |  |  |
| B20 | 110 % of control |  |  |
| B21 |  | 59.8 % of control | 218 % of control |
| B22 | 106 % of control |  |  |
| B23 | 103 % of control |  |  |
| B24 |  | 50.8 % of control | 192 % of control |
| B25 |  | 56.4 % of control | 110 % of control |
